The values that follow come from patent publication US20250042956A1 (University of California, published 2025).

Assay [1] concerns the target T1, PIAL2 (yeast two hybrid GAL4 fusion) (Arabidopsis thaliana, UniProt F4JYG0 1-760).
T1 construct: cDNA cloned into Gateway Y2H vectors; not shown: GAL4-AD or GAL4-BD (pGADT7-GW / pGBKT7-GW)
T1 sequence: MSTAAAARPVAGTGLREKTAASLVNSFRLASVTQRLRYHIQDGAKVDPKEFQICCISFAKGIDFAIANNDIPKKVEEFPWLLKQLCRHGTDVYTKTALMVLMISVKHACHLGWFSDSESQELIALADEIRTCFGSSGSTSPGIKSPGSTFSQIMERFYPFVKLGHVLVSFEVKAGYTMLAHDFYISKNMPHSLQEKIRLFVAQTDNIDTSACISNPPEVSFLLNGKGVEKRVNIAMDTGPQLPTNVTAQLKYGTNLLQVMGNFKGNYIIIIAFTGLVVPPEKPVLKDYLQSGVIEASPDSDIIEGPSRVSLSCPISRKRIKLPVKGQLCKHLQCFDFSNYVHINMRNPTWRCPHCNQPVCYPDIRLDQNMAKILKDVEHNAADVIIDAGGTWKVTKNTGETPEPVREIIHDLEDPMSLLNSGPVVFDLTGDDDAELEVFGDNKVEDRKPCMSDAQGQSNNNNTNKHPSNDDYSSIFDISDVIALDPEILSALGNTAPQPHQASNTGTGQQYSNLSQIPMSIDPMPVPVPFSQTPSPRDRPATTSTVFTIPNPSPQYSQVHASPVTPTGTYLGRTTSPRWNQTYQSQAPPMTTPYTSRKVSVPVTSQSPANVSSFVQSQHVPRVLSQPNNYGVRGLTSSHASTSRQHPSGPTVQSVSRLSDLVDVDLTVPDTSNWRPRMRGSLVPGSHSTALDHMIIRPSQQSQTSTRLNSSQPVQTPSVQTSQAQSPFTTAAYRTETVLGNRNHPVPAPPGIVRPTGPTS
The experiment in a line: yeast two hybrid. From the text:
The cDNA sequences of PIAL1, PIAL2, MOM2, MORC6, and MOM1 CMM2 domain (aa1660-aa1860, (see e.g., Han, Plant Cell Rep., 2016)) were first cloned into gateway entry vectors followed by LR reaction with pGBKT7-GW (Addgene 61703) and pGADT7-GW (Addgene 61702) destination vectors. Pairs of plasmid DNA for the desired protein interaction to be tested were co-transformed into the yeast strain AH109. Combinations of the empty pGBKT7-GW or pGADT7-GW vectors and the plasmids of desired proteins were used for transformation of yeast cells to test for self-activation. Transformed yeast cells were plated on synthetic dropout medium without Trp and Leu (SD-TL) and incubated for 2-3 days to allow for the growth of positive colonies carrying both plasmids. Three yeast colonies of each tested protein interaction pairs were picked and mixed in 150 μl 1×TE solution, and 3 μl of the 1×TE solution with the yeast cells were blotted on synthetic dropout medium without Trp, Leu, and His (SD-TLH) and with 5 mM 3-amino-1,2,4-triazole (3AT) to inhibit background growth. Growth of yeast on SD-TLH with 5 mM 3AT medium after 2-3 days of incubation indicates the interaction between the GAL4-AD fusion protein and the GAL4-BD fusion protein.

Assay [2] deals with T2, AT4G35510.1 TRBIP1 (Arabidopsis thaliana).
T2 construct: Endogenous protein found by mass spectrometry
T2 chain: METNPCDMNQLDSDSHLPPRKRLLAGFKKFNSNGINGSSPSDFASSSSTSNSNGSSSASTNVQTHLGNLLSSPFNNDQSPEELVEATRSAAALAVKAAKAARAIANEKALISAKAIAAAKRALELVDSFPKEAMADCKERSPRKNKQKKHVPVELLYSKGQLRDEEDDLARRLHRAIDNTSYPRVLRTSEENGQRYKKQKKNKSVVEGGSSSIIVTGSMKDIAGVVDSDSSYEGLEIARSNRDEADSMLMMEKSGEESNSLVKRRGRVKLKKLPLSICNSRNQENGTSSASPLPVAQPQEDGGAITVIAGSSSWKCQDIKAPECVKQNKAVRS
The experiment in a line: IP-MS rep 1. On the procedure:
(§1) The method of IP-MS used in this Example has been described in a recent paper (see e.g., Xue, Nat. Comm., 2021). Ten grams of unopened floral buds from Col-0 wild type and FLAG-tag transgenic plants, including PHD1, MOM1, AIPP3, MOM2, MORC6, PIAL2, TRB1, TRB2, TRB3, JMJ14, HD2A, HD2B, and ELF7 were collected and ground into fine powder with liquid nitrogen. These samples were resuspended with 25 mL IP buffer and homogenized until lump-free by dounce homogenizer. The lysate was filtered through Miracloth and incubated with 250 μL anti-FLAG M2 magnetic beads (Sigma) at 4° C. for 2 hours. The magnetic beads were washed with IP buffer and eluted with TBS containing 250 μg/mL 3×FLAG peptides. The eluted proteins were precipitated with trichloroacetic acid (Sigma) and subject to MS analyses as described previously (see e.g., Xue, Nat. Comm., 2021).

The target of assay [3] is T3, AT2G17540.2 TRBIP2 (Arabidopsis thaliana).
T3 construct: Endogenous protein found by mass spectrometry
T3 chain: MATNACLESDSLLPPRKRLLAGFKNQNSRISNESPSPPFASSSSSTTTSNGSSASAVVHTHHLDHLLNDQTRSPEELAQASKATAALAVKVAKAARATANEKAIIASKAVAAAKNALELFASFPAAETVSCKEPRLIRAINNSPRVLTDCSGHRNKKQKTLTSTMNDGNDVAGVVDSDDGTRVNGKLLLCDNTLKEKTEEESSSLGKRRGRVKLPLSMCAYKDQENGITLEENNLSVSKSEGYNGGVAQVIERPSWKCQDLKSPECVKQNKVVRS
Kind of assay: IP-MS rep 1. On the procedure: as §1

Assay [4] deals with T2, AT4G35510.1 TRBIP1. Kind of assay: IP-MS rep 2. On the procedure: as §1
For assay [5], the target named is T3, AT2G17540.2 TRBIP2. Kind of assay: IP-MS rep 2. The protocol:
as §1

For assay [6], the target named is T2, AT4G35510.1 TRBIP1. The experiment in a line: X-link IP-MS.
Assay [7] concerns the target T3, AT2G17540.2 TRBIP2. The experiment in a line: X-link IP-MS.

B1: MORC6 (yeast two hybrid GAL4 fusion) (other, Arabidopsis thaliana, UniProt Q56Y74 1-663, looked up)
chain: MSHDRSVNVSHDAVIAKPERGTMLQSFSPRSHGSKGYSLPQDSEENRGSVGQSAGQSSTSVVDQVRSPADDAGVTSSSTICPAPVCRQFWKAGSYNDELSSKSQQPNGKNYLHVHPMFLHSNATSHKWAFGAVAELLDNAVDEIQNGATFVIVDKTTNPRDGATALLIQDDGGGMDPQAMRHCMGFGFSDKKSDSAIGRYGNGFKTSTMRLGADVIVFSRHSKNQTLTQSIGLLSYTYLTRTGHDRIVVPILDYEFNASAGEFKTLQDREHFISSLSILLEWSPFSTEAELLQQFDDVGPHGTKVIIYNMWLNSDAKLELDFDSVAEDILIEGSIKKTGSKIVNDHIASRFSYSLRVYLSILYLRIPETFKIILRGKVVEHHNVADDLMHPQYILYKPQAAGSEEALVVTTIGFLKEAPKVNLHGFCVYHKNRLIMPFWQVINYSSSRGRGVVGVLEANFVEPTHNKQDFEKTVLLQKLENRLKEMTVEYWSCHCVLIGYQVNKKPRLQIPQKVQPAGRQALSPPPGFQAVFPQGNTTSLPRVSTQPVLLEKRKEHPDSVASAALKRKVGNDDFTVPGHIRVEQFIHGSASQSQDIETVKLMEENKKLRAKCLDRKVRSQNLEVKAMNLRSELENYKSEYERLMVELQALDLVKDEHRRNVNT
notes: cDNA cloned into Gateway Y2H vectors; not shown: GAL4-AD or GAL4-BD (pGADT7-GW / pGBKT7-GW)
As to B1, in assay [1], the binding result was “binds”.

B2: MOM1 CMM2 domain (yeast two hybrid GAL4 fusion) (other, Arabidopsis thaliana, UniProt Q9M658 1660-1860, looked up)
chain: TSVAEPHISGSDACEMEISEPGPQVERSTFANLFHEGGVEHSAGVTALVPSLLNNGTEQIAVQPVPQIPFPVFNDPFLHELEKLRRESENSKKTFEEKKSILKAELERKMAEVQAEFRRKFHEVEAEHNTRTTKIEKDKNLVIMNKLLANAFLSKCTDKKVSPSGAPRGKIQQLAQRAAQVSALRNYIAPQQLQASSFPAP
notes: range 1660-1860; also called MOM1 CMM2 domain (aa1660-aa1860); not shown: GAL4-AD or GAL4-BD (pGADT7-GW / pGBKT7-GW)
Regarding B2, the binding result in assay [1] is given as “binds”.

B3: FLAG-TRB3 (other, not shown: small tags and cut ends)
chain: MGAPKLKWTPEEETALKAGVLKHGTGKWRTILSDPVYSTILKSRSNVDLKDKWRNISVTALWGSRKKAKLALKRTPLSGSRQDDNATAITIVSLANGDVGGQQIDAPSPPAGSCEPPRPSTSVDKIILEAITSLKRPFGPDGKSILMYIEENFKMQPDMKRLVTSRLKYLTNVGTLVKKKHKYRISQNYMAEGEGQRSPQLLLEGNKENTPKPEENGVKNLTKSQVGGEVMIMGMTEKEAAAAAARAVAEAEFAMAEAEEAAREADKAEAEAEAAHIFAKAAMKAVKYRMHSQTR
notes: FLAG-tagged TRB3 from its native promoter; tag position under the label FLAG-TRB3 not certain; also called TRB3-FLAG; TRB-FLAG
Turning to B3, the IP-MS count worked out at 24 with AT4G35510.1 TRBIP1 [2]; 16 with AT2G17540.2 TRBIP2 [3]; 38 in the assay with AT4G35510.1 TRBIP1 [4]; 20 with AT2G17540.2 TRBIP2 [5]; 17 with AT4G35510.1 TRBIP1 [6]; 3 with AT2G17540.2 TRBIP2 [7].
